From patent US20190225650A1, “PEPTIDOMIMETIC MACROCYCLES AND USE THEREOF IN REGULATING HIF1ALPHA” (AILERON THERAPEUTICS, INC., priority 2013, published 2019)
Bridge positions count the residues as written; N and C are the ends. Square brackets hold non-standard residues; d marks the D form. S5 = C=CCCC[C@](C)(N)C(=O)O; Nle = CCCC[C@H](N)C(=O)O

Molecular target: T1, His6-tagged p300 (AA 323-423) (UniProt Q09472 323-423)
T1 construct: range 323-423; also called p300-CH; not shown: His6 tag
Assay: TR-FRET HIF1a/p300 displacement; grade = IC50 >700 nM
Outline: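 Peptides competed with HIF1α C-terminal transactivation domain for His6-p300-CH (complex 300 nM final) during 1 h at RT in 20 mM HEPES pH 7.4, 150 mM NaCl, 7.5 mM CHAPS, 1 mM DTT. Anti-Flag-K (0.5 μM) and anti-His-D2 (4 nM) were added for 2 h. IC50 was derived from the TR-FRET ratio by one-site fit.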

T1 sequence (Q09472 323-423 limits assumed): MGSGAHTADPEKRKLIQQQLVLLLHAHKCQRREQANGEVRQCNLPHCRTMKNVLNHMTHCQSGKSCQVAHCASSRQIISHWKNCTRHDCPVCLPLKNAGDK

Row | IC50 | Binder
1 | > 0.7 µM | Ac-FIDEESL[Nle][S5]LVI[S5][Nle]ALDRI-NH2 (staple 9-13; SMILES CCCC[C@H](NC(=O)[C@H](CC(C)C)NC(=O)[C@H](CO)NC(=O)[C@H](CCC(=O)O)NC(=O)[C@H](CCC(=O)O)NC(=O)[C@H](CC(=O)O)NC(=O)[C@@H](NC(=O)[C@H](Cc1ccccc1)NC(C)=O)[C@@H](C)CC)C(=O)N[C@@]1(C)CCCC=CCCC[C@@](C)(C(=O)N[C@@H](CCCC)C(=O)N[C@@H](C)C(=O)N[C@@H](CC(C)C)C(=O)N[C@@H](CC(=O)O)C(=O)N[C@@H](CCCNC(=N)N)C(=O)N[C@H](C(N)=O)[C@@H](C)CC)NC(=O)[C@H]([C@@H](C)CC)NC(=O)[C@H](C(C)C)NC(=O)[C@H](CC(C)C)NC1=O) [SP-48]
2 | > 0.7 µM | Ac-FIDEEVL[Nle][S5]LVI[S5][Nle]ALDSI-NH2 (staple 9-13; SMILES CCCC[C@H](NC(=O)[C@H](CC(C)C)NC(=O)[C@@H](NC(=O)[C@H](CCC(=O)O)NC(=O)[C@H](CCC(=O)O)NC(=O)[C@H](CC(=O)O)NC(=O)[C@@H](NC(=O)[C@H](Cc1ccccc1)NC(C)=O)[C@@H](C)CC)C(C)C)C(=O)N[C@@]1(C)CCCC=CCCC[C@@](C)(C(=O)N[C@@H](CCCC)C(=O)N[C@@H](C)C(=O)N[C@@H](CC(C)C)C(=O)N[C@@H](CC(=O)O)C(=O)N[C@@H](CO)C(=O)N[C@H](C(N)=O)[C@@H](C)CC)NC(=O)[C@H]([C@@H](C)CC)NC(=O)[C@H](C(C)C)NC(=O)[C@H](CC(C)C)NC1=O) [SP-58]
3 | > 0.7 µM | Ac-FIDEEVL[Nle][S5]LSI[S5][Nle]ALDRI-NH2 (staple 9-13; SMILES CCCC[C@H](NC(=O)[C@H](CC(C)C)NC(=O)[C@@H](NC(=O)[C@H](CCC(=O)O)NC(=O)[C@H](CCC(=O)O)NC(=O)[C@H](CC(=O)O)NC(=O)[C@@H](NC(=O)[C@H](Cc1ccccc1)NC(C)=O)[C@@H](C)CC)C(C)C)C(=O)N[C@@]1(C)CCCC=CCCC[C@@](C)(C(=O)N[C@@H](CCCC)C(=O)N[C@@H](C)C(=O)N[C@@H](CC(C)C)C(=O)N[C@@H](CC(=O)O)C(=O)N[C@@H](CCCNC(=N)N)C(=O)N[C@H](C(N)=O)[C@@H](C)CC)NC(=O)[C@H]([C@@H](C)CC)NC(=O)[C@H](CO)NC(=O)[C@H](CC(C)C)NC1=O) [SP-52]
4 | > 0.7 µM | Ac-FIDEQVL[Nle][S5]LVI[S5][Nle]ALDRI-NH2 (staple 9-13; SMILES CCCC[C@H](NC(=O)[C@H](CC(C)C)NC(=O)[C@@H](NC(=O)[C@H](CCC(N)=O)NC(=O)[C@H](CCC(=O)O)NC(=O)[C@H](CC(=O)O)NC(=O)[C@@H](NC(=O)[C@H](Cc1ccccc1)NC(C)=O)[C@@H](C)CC)C(C)C)C(=O)N[C@@]1(C)CCCC=CCCC[C@@](C)(C(=O)N[C@@H](CCCC)C(=O)N[C@@H](C)C(=O)N[C@@H](CC(C)C)C(=O)N[C@@H](CC(=O)O)C(=O)N[C@@H](CCCNC(=N)N)C(=O)N[C@H](C(N)=O)[C@@H](C)CC)NC(=O)[C@H]([C@@H](C)CC)NC(=O)[C@H](C(C)C)NC(=O)[C@H](CC(C)C)NC1=O) [SP-69]
5 | > 0.7 µM | Ac-FIDEEVS[Nle][S5]LVI[S5][Nle]ALDRI-NH2 (staple 9-13; SMILES CCCC[C@H](NC(=O)[C@H](CO)NC(=O)[C@@H](NC(=O)[C@H](CCC(=O)O)NC(=O)[C@H](CCC(=O)O)NC(=O)[C@H](CC(=O)O)NC(=O)[C@@H](NC(=O)[C@H](Cc1ccccc1)NC(C)=O)[C@@H](C)CC)C(C)C)C(=O)N[C@@]1(C)CCCC=CCCC[C@@](C)(C(=O)N[C@@H](CCCC)C(=O)N[C@@H](C)C(=O)N[C@@H](CC(C)C)C(=O)N[C@@H](CC(=O)O)C(=O)N[C@@H](CCCNC(=N)N)C(=O)N[C@H](C(N)=O)[C@@H](C)CC)NC(=O)[C@H]([C@@H](C)CC)NC(=O)[C@H](C(C)C)NC(=O)[C@H](CC(C)C)NC1=O) [SP-49]
